Series [1] has as its target T1, GTP cyclohydrolase IB (GCYH-IB) (Neisseria gonorrhoeae, UniProt Q5F9K6).
T1 sequence (Q5F9K6 1-257): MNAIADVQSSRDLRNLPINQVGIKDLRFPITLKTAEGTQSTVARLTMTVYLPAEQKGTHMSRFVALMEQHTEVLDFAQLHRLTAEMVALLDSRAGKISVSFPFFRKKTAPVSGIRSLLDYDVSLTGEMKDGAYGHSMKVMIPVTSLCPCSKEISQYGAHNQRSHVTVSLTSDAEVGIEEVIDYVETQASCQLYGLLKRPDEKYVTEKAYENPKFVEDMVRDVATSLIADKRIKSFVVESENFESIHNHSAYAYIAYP
As to the kind of experiment: competitive inhibition kinetics, fluorescence assay of neopterin. The series is classed as biochemical.

Series [2] addresses GTP cyclohydrolase IB (GCYH-IB) (Neisseria gonorrhoeae, UniProt Q5F9K6). As to the kind of experiment: X-ray crystal structure at […] Å. Format: biochemical.
Series [3] has as its target Neisseria gonorrhoeae GCYH-IB Cys149Ala mutant (Neisseria gonorrhoeae) (UniProt Q5F9K6). As to the kind of experiment: SEC.
In series [4] the target is Neisseria gonorrhoeae GCYH-IB Cys149Ser mutant (Neisseria gonorrhoeae) (UniProt Q5F9K6). As to the kind of experiment: SEC.
Series [5] addresses Neisseria gonorrhoeae GCYH-IB Glu152Ala mutant (Neisseria gonorrhoeae) (UniProt Q5F9K6). As to the kind of experiment: SEC. For orientation: SEC sorts molecules by how far they enter the pores of the column.
For series [6], the target named is Neisseria gonorrhoeae GCYH-IB Glu243Ala mutant (Neisseria gonorrhoeae) (UniProt Q5F9K6). As to the kind of experiment: SEC.
Series [7] concerns the target Neisseria gonorrhoeae GCYH-IB His246Ala mutant (Neisseria gonorrhoeae) (UniProt Q5F9K6). As to the kind of experiment: SEC.
The target of series [8] is Neisseria gonorrhoeae GCYH-IB His246Asn mutant (Neisseria gonorrhoeae) (UniProt Q5F9K6). As to the kind of experiment: SEC.
Series [9] addresses Neisseria gonorrhoeae GCYH-IB His246Asp mutant (Neisseria gonorrhoeae) (UniProt Q5F9K6). As to the kind of experiment: SEC.
Series [10] has as its target Neisseria gonorrhoeae GCYH-IB His246Gln mutant (Neisseria gonorrhoeae) (UniProt Q5F9K6). As to the kind of experiment: SEC.
For series [11], the target named is Neisseria gonorrhoeae GCYH-IB His246Lys mutant (Neisseria gonorrhoeae) (UniProt Q5F9K6). As to the kind of experiment: SEC.
Substrate in the series “steady-state kinetics”: Nc1nc2c(ncn2[C@@H]2O[C@H](COP(=O)(O)OP(=O)(O)OP(=O)(O)O)[C@@H](O)[C@H]2O)c(=O)[nH]1
As to the kind of experiment: steady-state kinetics. Format: biochemical, Neisseria gonorrhoeae. Particulars: Mn2+ active site.

The series “crystal structure” deals with the molecule itself. As to the kind of experiment: crystal structure.

What is called Ki is a dissociation constant, usually derived from enzyme kinetics or from competition with a known ligand. A low value points to higher affinity. By stoichiometry N is commonly meant the number of molecules, sites or subunits per partner or assembly. One may read the Km as the substrate concentration at which the rate is half of its maximum.

With `Nc1nc2c(ncn2[C@H]2C[C@H](O)[C@@H](COP(=O)(O)OP(=O)(O)OP(=O)(O)O)O2)c(=O)[nH]1` [2′-deoxyGTP], the Ki in series [1] was 164 µM.
In [1], `Nc1nc2c(ccn2[C@@H]2O[C@H](COP(=O)(O)OP(=O)(O)OP(=O)(O)O)[C@@H](O)[C@H]2O)c(=O)[nH]1` [7-deaza-GTP] registered a Ki of 45.7 µM.
`Nc1nc2c([nH]c(=O)n2[C@@H]2O[C@H](CO[P@@](=O)(O)O[P@@](=O)(O)OP(=O)(O)O)[C@@H](O)[C@H]2O)c(=O)[nH]1` [8-oxo-GTP] returned a Ki in series [2] of 0.149 µM.
In turn, “Neisseria gonorrhoeae GCYH-IB Cys149Ala mutant (from UniProt Q5F9K6 1-257) (enzyme)” came in with a stoichiometry N in series [3] of 4.
Molecule “Neisseria gonorrhoeae GCYH-IB Cys149Ser mutant (from UniProt Q5F9K6 1-257) (enzyme)” came in with a stoichiometry N in [4] of 4.
With “Neisseria gonorrhoeae GCYH-IB Glu152Ala mutant (from UniProt Q5F9K6 1-257) (enzyme)”, the stoichiometry N in [5] came to 4.
On to “Neisseria gonorrhoeae GCYH-IB Glu243Ala mutant (from UniProt Q5F9K6 1-257) (enzyme)”, for which the stoichiometry N in [6] is 4.
For the molecule “Neisseria gonorrhoeae GCYH-IB His246Ala mutant (from UniProt Q5F9K6 1-257) (enzyme)”, in series [7], the stoichiometry N stood at 4.
The molecule “Neisseria gonorrhoeae GCYH-IB His246Asn mutant (from UniProt Q5F9K6 1-257) (enzyme)” returned a stoichiometry N in series [8] of 4.
“Neisseria gonorrhoeae GCYH-IB His246Asp mutant (from UniProt Q5F9K6 1-257) (enzyme)”: the stoichiometry N in series [9] was found to be 4.
Turning to “Neisseria gonorrhoeae GCYH-IB His246Gln mutant (from UniProt Q5F9K6 1-257) (enzyme)”, the stoichiometry N in [10] was found to be 4.
“Neisseria gonorrhoeae GCYH-IB His246Lys mutant (from UniProt Q5F9K6 1-257) (enzyme)” displayed a stoichiometry N in series [11] of 4.

B1: GTP cyclohydrolase IB (GCYH-IB) (Neisseria gonorrhoeae FA 1090) (protein)
chain: T1 sequence (Q5F9K6 1-257)
Regarding B1, in “steady-state kinetics”, the Km was found to be 9.15 µM.

B2: Neisseria gonorrhoeae GTP cyclohydrolase IB, wild type (enzyme)
chain: T1 sequence (Q5F9K6 1-257)
modifications: S-nitrosylated Cys149 (as purified from E. coli)
As to B2, the “stoichiometry N” value in the series “crystal structure” was found to be 4.

(Values after publication PMC5558430 (The Biochemical journal, 2017).)
